In patent US20150197564A1 (Regeneron, published 2015):
Numbering of substitutions follows the chain as printed.

B1: H4H1250P (antibody, IgG4, V domains shown)
VH: QVQLVESGGGVVQPGRSLRLSCAASGFTFSSYGMHWVRQAPGKGLEWVAVISNDGSNKYYVDSVKGRFTMGRDNSKNTLYLQMNSLRVEDTAVYYCAKGAGTLYYYYYGMDVWGQGTTVTVSS
VL: DIQMTQSPSTLSASVGNRVTITCRASQSISSWLAWYQQKPGKAPKFLIYKASSLESGVPSRFSGSGSGTEFTLTITSLQPDDFATYYCQQYNIYSWTFGQGTKVEIK
B2: H4H1279P (antibody, IgG4, V domains shown)
VH: QVQLVESGGGLVKPGGSLRLSCAASGFTFSDYYMSWIRQAPGKGLEWVSYIGSSGVNMYYADSVKGRFTISRDNAKNSLYLEMNSLRAEDTAVYYCARDSSQLGFDYWGQGTLVTVSS
VL: DIQMTQSPSSLSASVGDRVTITCRTSQNIINFLNWYQQKPGKAPKLLIYTTSTLQSGVPSRFSGSGSGTDFTLSINSLQPEDFATYFCQQTYSNPLTFGGGTKLEIKR
B3: H4H1292P (antibody, IgG4, V domains shown)
VH: B2 VH with G52S, V56S, N57T, M58I, E82Q
VL: B2 VL with T25A, N28S, N31S, T51A, T53S, S74T, N76S, F87Y, L104V
B4: H1M896N (antibody, V domains shown)
VH: EVQLLESGGGLVQPGGSLRLSCAASGFTFSTYAMSWVRQAPGKGLEGVSGISGTGYRTYYADSVKGRFTISRDNSKNSLYLQMNSLRAEDTAVYYCAKDRGLLWFGELTYWGQGTLVTVSS
VL: DIQMTQSPSTLSASVGDRVTITCRASQSINNWLAWYQQKPGKAPNLLIYKASSLESGVPSRFSGSGSGTEFTLTISSLQPDDFATYYCQQYNDYWTFGQGTKVEIK
B5: hANGPTL3(17-169)-mFc (Fc fusion)
chain: SRIDQDNSSFDSLSPEPKSRFAMLDDVKILANGLLQLGHGLKDFVHKTKGQINDIFQKLNIFDQSFYDLSLQTSEIKEEEKELRRTTYKLQVKNEEVKNMSLELNSKLESLLEEKILLQQKVKYLEEQLTNLIQNQPETPEHPEVTSLKTFVEEPRGPTIKPCPPCKCPAPNLLGGPSVFIFPPKIKDVLMISLSPIVTCVVVDVSEDDPDVQISWFVNNVEVHTAQTQTHREDYNSTLRVVSALPIQHQDWMSGKEFKCKVNNKDLPAPIERTISKPKGSVRAPQVYVLPPPEEEMTKKQVTLTCMVTDFMPEDIYVEWTNNGKTELNYKNTEPVLDSDGSYFMYSKLRVEKKNWVERNSYSCSVVHEGLHNHHTTKSFSRTPGK
B6: hANGPTL4(26-148)-mFc (Fc fusion)
chain: GPVQSKSPRFASWDEMNVLAHGLLQLGQGLREHAERTRSQLSALERRLSACGSACQGTEGSTDLPLAPESRVDPEVLHSLQTQLKAQNSRIQQLFHKVAQQQRHLEKQHLRIQHLQSQFGLLDEPRGPTIKPCPPCKCPAPNLLGGPSVFIFPPKIKDVLMISLSPIVTCVVVDVSEDDPDVQISWFVNNVEVHTAQTQTHREDYNSTLRVVSALPIQHQDWMSGKEFKCKVNNKDLPAPIERTISKPKGSVRAPQVYVLPPPEEEMTKKQVTLTCMVTDFMPEDIYVEWTNNGKTELNYKNTEPVLDSDGSYFMYSKLRVEKKNWVERNSYSCSVVHEGLHNHHTTKSFSRTPGK

Each binder was assayed against T1, hANGPTL3(17-460)-His (human, UniProt Q9Y5C1 17-460) (assay: Biacore cross-competition; second antibody after pre-loading with Negative Control).
T1 construct: Bought protein (R&D Systems); also called full-length mature human ANGPTL3 with a C-terminal decahistidine tag; Human ANGPTL3 (17-460)-His
T1 sequence: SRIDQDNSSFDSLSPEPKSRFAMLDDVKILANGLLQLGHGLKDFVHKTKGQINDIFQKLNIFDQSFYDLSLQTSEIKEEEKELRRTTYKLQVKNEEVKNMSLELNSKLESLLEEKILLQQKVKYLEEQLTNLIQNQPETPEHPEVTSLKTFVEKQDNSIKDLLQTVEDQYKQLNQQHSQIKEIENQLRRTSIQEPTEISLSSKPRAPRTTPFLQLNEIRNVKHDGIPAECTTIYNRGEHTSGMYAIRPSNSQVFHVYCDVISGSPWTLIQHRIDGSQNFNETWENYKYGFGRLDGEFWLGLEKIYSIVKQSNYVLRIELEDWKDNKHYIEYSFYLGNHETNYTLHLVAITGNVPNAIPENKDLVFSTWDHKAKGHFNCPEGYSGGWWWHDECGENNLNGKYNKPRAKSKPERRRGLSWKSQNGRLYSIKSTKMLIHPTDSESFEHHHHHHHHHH
Procedure: (§1) Cross competition experiments were performed at 25° C. on a Biacore essentially as described in Example 3 above. […] The results are shown in Table 8 with binding response for the first antibody (mAb1), followed by binding response of the second antibody (mAb2) on the ANGPTL3 surface pre-loaded with the first antibody. Numbers in bold indicate that the antibody pairs are able to bind to hANGPTL3 simultaneously. Numbers in italics indicate that that the antibody pairs are able to bind to hANGPTL3 simultaneously when added sequentially in one direction but not the other. Brackets indicate self-self competition.
For B1, the “mAb2 binding response (RU)” value was 187 RU. With B2 the “mAb2 binding response (RU)” value was 47 RU. In the case of B3, the “mAb2 binding response (RU)” value is reported as 48 RU. For B4, the “mAb2 binding response (RU)” value was 149 RU.

Each binder was assayed against T1, hANGPTL3(17-460)-His (assay: Biacore cross-competition; second antibody after pre-loading with competitor H1M896N).
Procedure: as §1
B1 was tested, and the “mAb2 binding response (RU)” value was -4 RU. B2 was tested, and the “mAb2 binding response (RU)” value was 47 RU. With B3 the “mAb2 binding response (RU)” value was 50 RU.

These binders were tested against T1, hANGPTL3(17-460)-His (assay: Biacore cross-competition; second antibody after pre-loading with competitor H4H1279P).
Procedure: as §1
B1 was tested, and the “mAb2 binding response (RU)” value was 213 RU. B3 was tested, and the “mAb2 binding response (RU)” value was -1 RU. In the case of B4, the “mAb2 binding response (RU)” value is reported as 186 RU.

The binders below were run against T2, bovine LPL (bovine, UniProt P11151 29-478, limits assumed) (assay: cell-based or functional assay).
T2 sequence (looked up): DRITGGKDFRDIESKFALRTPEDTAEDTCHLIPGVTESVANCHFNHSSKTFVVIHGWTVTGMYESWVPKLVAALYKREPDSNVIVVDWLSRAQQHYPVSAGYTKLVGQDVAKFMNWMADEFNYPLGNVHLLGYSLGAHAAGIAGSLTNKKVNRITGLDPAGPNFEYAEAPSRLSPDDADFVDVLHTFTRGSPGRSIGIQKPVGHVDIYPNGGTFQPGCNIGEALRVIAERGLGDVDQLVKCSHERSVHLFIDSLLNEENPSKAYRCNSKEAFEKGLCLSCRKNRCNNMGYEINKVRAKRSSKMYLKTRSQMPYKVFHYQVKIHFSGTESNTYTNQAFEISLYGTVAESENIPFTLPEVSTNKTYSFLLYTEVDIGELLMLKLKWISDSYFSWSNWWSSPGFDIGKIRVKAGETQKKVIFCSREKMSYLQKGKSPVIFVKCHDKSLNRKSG
B5 was tested, and the “EC50 (nM), inhibition of LPL activity” value was 16 nM. B6 was tested, and the “EC50 (nM), inhibition of LPL activity” value was 0.2 nM.

Target: T2, bovine LPL
Assay: cell-based or functional assay
Remark: another data set of the same source
In the case of B5, the “IC50 for blocking LPL” value is reported as 47 nM.

Each binder was assayed against T3, mANGPTL3(17-455)-His (Mus musculus, UniProt Q9R182 17-455) (assay: SPR Biacore, antigen captured, 37C, pH 7.4, HBS-EP).
T3 construct: Bought protein (R&D Systems); also called full-length mature ANGPTL3 from Mus musculus with a C-terminal decahistidine tag
T3 sequence: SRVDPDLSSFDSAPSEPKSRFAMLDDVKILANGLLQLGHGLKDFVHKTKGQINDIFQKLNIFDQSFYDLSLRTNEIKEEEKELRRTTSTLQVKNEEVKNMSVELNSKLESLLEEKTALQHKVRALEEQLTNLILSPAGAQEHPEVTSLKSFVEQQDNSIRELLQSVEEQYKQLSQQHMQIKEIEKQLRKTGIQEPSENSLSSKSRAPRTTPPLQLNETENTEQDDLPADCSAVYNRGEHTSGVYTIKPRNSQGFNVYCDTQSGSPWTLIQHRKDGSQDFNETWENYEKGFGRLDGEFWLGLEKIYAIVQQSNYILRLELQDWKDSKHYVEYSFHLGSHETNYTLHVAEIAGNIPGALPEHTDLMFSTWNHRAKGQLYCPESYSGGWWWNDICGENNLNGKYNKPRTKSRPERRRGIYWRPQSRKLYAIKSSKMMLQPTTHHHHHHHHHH
Procedure: (§2) All kinetic binding experiments were performed at 25° C. or 37° C. on a BIACORE™ T200 label-free molecular interaction instrument (GE Healthcare) using a CM5 sensor chip. Briefly, an antigen capture surface was generated by covalently coupling either an anti-mouse IgG-specific antibody (anti-mFc; GE Healthcare; catalog #BR-1008-38) or an anti-pentahistidine-specific antibody (Qiagen; catalog #34660) to the surface of a CM5 sensor chip using a standard amine coupling method.
B1 showed a Kd of 0.486 nM, a koff of 0.00155 s⁻¹ and a kon of 3.18e+06 M⁻¹ s⁻¹. The t1/2 was 7 min. With B2 the Kd was 0.167 nM, the koff was 0.000359 s⁻¹ and the kon was 2.15e+06 M⁻¹ s⁻¹. It also gave a t1/2 of 32 min. Work on B3 yielded a Kd of 0.38 nM, a koff of 0.00149 s⁻¹ and a kon of 3.92e+06 M⁻¹ s⁻¹. For the same binder, the t1/2 was 8 min. For B4, the Kd was 0.682 nM, the koff was 0.00247 s⁻¹ and the kon was 3.62e+06 M⁻¹ s⁻¹. For the same binder, the t1/2 was 5 min.

What follows are binders tested against T1, hANGPTL3(17-460)-His (assay: SPR Biacore, antigen captured, 37C, pH 7.4, HBS-EP).
Procedure: as §2
For B1, the Kd was 0.324 nM, the koff was 0.00113 s⁻¹ and the kon was 3.5e+06 M⁻¹ s⁻¹. The t1/2 was 10 min. In the case of B2, the Kd is reported as 0.381 nM, the koff is reported as 0.00181 s⁻¹ and the kon is reported as 4.74e+06 M⁻¹ s⁻¹. The t1/2 was 6 min. B3 showed a Kd of 1.02 nM, a koff of 0.00194 s⁻¹ and a kon of 1.89e+06 M⁻¹ s⁻¹. The t1/2 was 6 min. B4 gave a Kd of 0.158 nM, a koff of 0.00053 s⁻¹ and a kon of 3.36e+06 M⁻¹ s⁻¹. It also gave a t1/2 of 22 min.

Target: B5
Assay: SPR Biacore, antigen captured, 25C, pH 7.4, HBS-EP
Procedure: as §2
B1 was tested, and the Kd was 0.519 nM, the koff was 0.000651 s⁻¹ and the kon was 1.25e+06 M⁻¹ s⁻¹. The t1/2 was 0.3 h. For B2, the Kd was 0.00841 nM, the koff was 5.53e-06 s⁻¹ and the kon was 658000 M⁻¹ s⁻¹. For the same binder, the t1/2 was 34.8 h. B3 gave a Kd of 0.257 nM, a koff of 0.000177 s⁻¹ and a kon of 686000 M⁻¹ s⁻¹. For the same binder, the t1/2 was 1.08 h.

Each binder was assayed against T1, hANGPTL3(17-460)-His (assay: SPR Biacore, antigen captured, 25C, pH 7.4, HBS-EP).
Procedure: as §2
With B1 the Kd was 0.726 nM, the koff was 0.000657 s⁻¹ and the kon was 904000 M⁻¹ s⁻¹. The t1/2 was 18 min. For B2, the Kd was 0.394 nM, the koff was 0.000114 s⁻¹ and the kon was 288000 M⁻¹ s⁻¹. The t1/2 was 102 min. Binder B3 has a Kd of 0.727 nM, a koff of 0.000248 s⁻¹ and a kon of 341000 M⁻¹ s⁻¹. For the same binder, the t1/2 was 47 min.

The binders below were run against T1, hANGPTL3(17-460)-His (assay: Biacore cross-competition; second antibody after pre-loading with competitor H4H1292P).
Procedure: as §1
B1 was tested, and the “mAb2 binding response (RU)” value was 220 RU. For B2, the “mAb2 binding response (RU)” value was -3 RU. B4 was tested, and the “mAb2 binding response (RU)” value was 182 RU.

Each binder was assayed against T1, hANGPTL3(17-460)-His (assay: Biacore cross-competition; second antibody after pre-loading with competitor H4H1250P).
Procedure: as §1
B2 was tested, and the “mAb2 binding response (RU)” value was 9 RU. For B3, the “mAb2 binding response (RU)” value was 8 RU. For B4, the “mAb2 binding response (RU)” value was -4 RU.

The binders below were run against T1, hANGPTL3(17-460)-His (assay: Biacore cross-competition, 25C; first antibody at 25 µg/ml on captured antigen).
Procedure: as §1
B1 was tested, and the “mAb1 binding response (RU)” value was 210 RU. In the case of B2, the “mAb1 binding response (RU)” value is reported as 45 RU. With B3 the “mAb1 binding response (RU)” value was 48 RU. For B4, the “mAb1 binding response (RU)” value was 171 RU.
